# Measured values published in patent US11965039B2, “Compstatin analogues and their medical uses” (priority 2018, dated 2024).
# Positions of bridges follow the written chain, without caps; N, C: chain ends. Non-standard residues stand in square brackets, D forms with d. Trp(1-Me) = Cn1cc(C[C@H](N)C(=O)O)c2ccccc21; Sar = CNCC(=O)O
# B1: Compound 84 (peptide)
# peptide: Ac-SEFCI[Trp(1-Me)]QDWGEHRCSEA-NH2
# modifications: disulfide 4-14
# SMILES: CC[C@H](C)[C@@H]1NC(=O)[C@@H](NC(=O)[C@H](Cc2ccccc2)NC(=O)[C@H](CCC(=O)O)NC(=O)[C@H](CO)NC(C)=O)CSSC[C@@H](C(=O)N[C@@H](CO)C(=O)N[C@@H](CCC(=O)O)C(=O)N[C@@H](C)C(N)=O)NC(=O)[C@H](CCCNC(=N)N)NC(=O)[C@H](Cc2c[nH]cn2)NC(=O)[C@H](CCC(=O)O)NC(=O)CNC(=O)[C@H](Cc2c[nH]c3ccccc23)NC(=O)[C@H](CC(=O)O)NC(=O)[C@H](CCC(N)=O)NC(=O)[C@H](Cc2cn(C)c3ccccc23)NC1=O
# B2: Compound 72 (peptide)
# peptide: Ac-FCI[Trp(1-Me)]QDW[Sar]EHRCTGAES-NH2
# modifications: disulfide 2-12
# SMILES: CC[C@H](C)[C@@H]1NC(=O)[C@@H](NC(=O)[C@H](Cc2ccccc2)NC(C)=O)CSSC[C@@H](C(=O)N[C@H](C(=O)NCC(=O)N[C@@H](C)C(=O)N[C@@H](CCC(=O)O)C(=O)N[C@@H](CO)C(N)=O)[C@@H](C)O)NC(=O)[C@H](CCCNC(=N)N)NC(=O)[C@H](Cc2c[nH]cn2)NC(=O)[C@H](CCC(=O)O)NC(=O)CN(C)C(=O)[C@H](Cc2c[nH]c3ccccc23)NC(=O)[C@H](CC(=O)O)NC(=O)[C@H](CCC(N)=O)NC(=O)[C@H](Cc2cn(C)c3ccccc23)NC1=O
# B3: Compound 74 (peptide)
# peptide: Ac-SEFCI[Trp(1-Me)]QDWGEHRC[Sar]GAES-NH2
# modifications: disulfide 4-14
# SMILES: CC[C@H](C)[C@@H]1NC(=O)[C@@H](NC(=O)[C@H](Cc2ccccc2)NC(=O)[C@H](CCC(=O)O)NC(=O)[C@H](CO)NC(C)=O)CSSC[C@@H](C(=O)N(C)CC(=O)NCC(=O)N[C@@H](C)C(=O)N[C@@H](CCC(=O)O)C(=O)N[C@@H](CO)C(N)=O)NC(=O)[C@H](CCCNC(=N)N)NC(=O)[C@H](Cc2c[nH]cn2)NC(=O)[C@H](CCC(=O)O)NC(=O)CNC(=O)[C@H](Cc2c[nH]c3ccccc23)NC(=O)[C@H](CC(=O)O)NC(=O)[C@H](CCC(N)=O)NC(=O)[C@H](Cc2cn(C)c3ccccc23)NC1=O
# B4: Compound 68 (peptide)
# peptide: Ac-YCI[Trp(1-Me)]QDWGEHRCTEAGS-NH2
# modifications: disulfide 2-12
# SMILES: CC[C@H](C)[C@@H]1NC(=O)[C@@H](NC(=O)[C@H](Cc2ccc(O)cc2)NC(C)=O)CSSC[C@@H](C(=O)N[C@H](C(=O)N[C@@H](CCC(=O)O)C(=O)N[C@@H](C)C(=O)NCC(=O)N[C@@H](CO)C(N)=O)[C@@H](C)O)NC(=O)[C@H](CCCNC(=N)N)NC(=O)[C@H](Cc2c[nH]cn2)NC(=O)[C@H](CCC(=O)O)NC(=O)CNC(=O)[C@H](Cc2c[nH]c3ccccc23)NC(=O)[C@H](CC(=O)O)NC(=O)[C@H](CCC(N)=O)NC(=O)[C@H](Cc2cn(C)c3ccccc23)NC1=O
# B5: Compound 80 (peptide)
# peptide: Ac-EFCI[Trp(1-Me)]QDWGEHRC[Sar]EA-NH2
# modifications: disulfide 3-13
# SMILES: CC[C@H](C)[C@@H]1NC(=O)[C@@H](NC(=O)[C@H](Cc2ccccc2)NC(=O)[C@H](CCC(=O)O)NC(C)=O)CSSC[C@@H](C(=O)N(C)CC(=O)N[C@@H](CCC(=O)O)C(=O)N[C@@H](C)C(N)=O)NC(=O)[C@H](CCCNC(=N)N)NC(=O)[C@H](Cc2c[nH]cn2)NC(=O)[C@H](CCC(=O)O)NC(=O)CNC(=O)[C@H](Cc2c[nH]c3ccccc23)NC(=O)[C@H](CC(=O)O)NC(=O)[C@H](CCC(N)=O)NC(=O)[C@H](Cc2cn(C)c3ccccc23)NC1=O
# B6: Compound 77 (peptide)
# peptide: Ac-SEFCI[Trp(1-Me)]QDW[Sar]EHRCTEA-NH2
# modifications: disulfide 4-14
# SMILES: CC[C@H](C)[C@@H]1NC(=O)[C@@H](NC(=O)[C@H](Cc2ccccc2)NC(=O)[C@H](CCC(=O)O)NC(=O)[C@H](CO)NC(C)=O)CSSC[C@@H](C(=O)N[C@H](C(=O)N[C@@H](CCC(=O)O)C(=O)N[C@@H](C)C(N)=O)[C@@H](C)O)NC(=O)[C@H](CCCNC(=N)N)NC(=O)[C@H](Cc2c[nH]cn2)NC(=O)[C@H](CCC(=O)O)NC(=O)CN(C)C(=O)[C@H](Cc2c[nH]c3ccccc23)NC(=O)[C@H](CC(=O)O)NC(=O)[C@H](CCC(N)=O)NC(=O)[C@H](Cc2cn(C)c3ccccc23)NC1=O
# B7: Compound 66 (peptide)
# peptide: Ac-YCIWQDWGEHRCTGAES-NH2
# modifications: disulfide 2-12
# SMILES: CC[C@H](C)[C@@H]1NC(=O)[C@@H](NC(=O)[C@H](Cc2ccc(O)cc2)NC(C)=O)CSSC[C@@H](C(=O)N[C@H](C(=O)NCC(=O)N[C@@H](C)C(=O)N[C@@H](CCC(=O)O)C(=O)N[C@@H](CO)C(N)=O)[C@@H](C)O)NC(=O)[C@H](CCCNC(=N)N)NC(=O)[C@H](Cc2c[nH]cn2)NC(=O)[C@H](CCC(=O)O)NC(=O)CNC(=O)[C@H](Cc2c[nH]c3ccccc23)NC(=O)[C@H](CC(=O)O)NC(=O)[C@H](CCC(N)=O)NC(=O)[C@H](Cc2c[nH]c3ccccc23)NC1=O
# B8: Compound 71 (peptide)
# peptide: Ac-SEYCI[Trp(1-Me)]QDWGEHRC[Sar]EA-NH2
# modifications: disulfide 4-14
# SMILES: CC[C@H](C)[C@@H]1NC(=O)[C@@H](NC(=O)[C@H](Cc2ccc(O)cc2)NC(=O)[C@H](CCC(=O)O)NC(=O)[C@H](CO)NC(C)=O)CSSC[C@@H](C(=O)N(C)CC(=O)N[C@@H](CCC(=O)O)C(=O)N[C@@H](C)C(N)=O)NC(=O)[C@H](CCCNC(=N)N)NC(=O)[C@H](Cc2c[nH]cn2)NC(=O)[C@H](CCC(=O)O)NC(=O)CNC(=O)[C@H](Cc2c[nH]c3ccccc23)NC(=O)[C@H](CC(=O)O)NC(=O)[C@H](CCC(N)=O)NC(=O)[C@H](Cc2cn(C)c3ccccc23)NC1=O
# B9: Compound 76 (peptide)
# peptide: Ac-SEFCI[Trp(1-Me)]QDW[Sar]EHRC[Sar]EA-NH2
# modifications: disulfide 4-14
# SMILES: CC[C@H](C)[C@@H]1NC(=O)[C@@H](NC(=O)[C@H](Cc2ccccc2)NC(=O)[C@H](CCC(=O)O)NC(=O)[C@H](CO)NC(C)=O)CSSC[C@@H](C(=O)N(C)CC(=O)N[C@@H](CCC(=O)O)C(=O)N[C@@H](C)C(N)=O)NC(=O)[C@H](CCCNC(=N)N)NC(=O)[C@H](Cc2c[nH]cn2)NC(=O)[C@H](CCC(=O)O)NC(=O)CN(C)C(=O)[C@H](Cc2c[nH]c3ccccc23)NC(=O)[C@H](CC(=O)O)NC(=O)[C@H](CCC(N)=O)NC(=O)[C@H](Cc2cn(C)c3ccccc23)NC1=O
# B10: Compound 78 (peptide)
# peptide: Ac-SEFCI[Trp(1-Me)]QDWGEHRC[Sar]E-NH2
# modifications: disulfide 4-14
# SMILES: CC[C@H](C)[C@@H]1NC(=O)[C@@H](NC(=O)[C@H](Cc2ccccc2)NC(=O)[C@H](CCC(=O)O)NC(=O)[C@H](CO)NC(C)=O)CSSC[C@@H](C(=O)N(C)CC(=O)N[C@@H](CCC(=O)O)C(N)=O)NC(=O)[C@H](CCCNC(=N)N)NC(=O)[C@H](Cc2c[nH]cn2)NC(=O)[C@H](CCC(=O)O)NC(=O)CNC(=O)[C@H](Cc2c[nH]c3ccccc23)NC(=O)[C@H](CC(=O)O)NC(=O)[C@H](CCC(N)=O)NC(=O)[C@H](Cc2cn(C)c3ccccc23)NC1=O
# B11: Compound 83 (peptide)
# peptide: Ac-SEFCI[Trp(1-Me)]QEWGEHRC[Sar]EA-NH2
# modifications: disulfide 4-14
# SMILES: CC[C@H](C)[C@@H]1NC(=O)[C@@H](NC(=O)[C@H](Cc2ccccc2)NC(=O)[C@H](CCC(=O)O)NC(=O)[C@H](CO)NC(C)=O)CSSC[C@@H](C(=O)N(C)CC(=O)N[C@@H](CCC(=O)O)C(=O)N[C@@H](C)C(N)=O)NC(=O)[C@H](CCCNC(=N)N)NC(=O)[C@H](Cc2c[nH]cn2)NC(=O)[C@H](CCC(=O)O)NC(=O)CNC(=O)[C@H](Cc2c[nH]c3ccccc23)NC(=O)[C@H](CCC(=O)O)NC(=O)[C@H](CCC(N)=O)NC(=O)[C@H](Cc2cn(C)c3ccccc23)NC1=O
# B12: Compound 79 (peptide)
# peptide: Ac-SEFCI[Trp(1-Me)]QDW[Sar]EHRC[Sar]E-NH2
# modifications: disulfide 4-14
# SMILES: CC[C@H](C)[C@@H]1NC(=O)[C@@H](NC(=O)[C@H](Cc2ccccc2)NC(=O)[C@H](CCC(=O)O)NC(=O)[C@H](CO)NC(C)=O)CSSC[C@@H](C(=O)N(C)CC(=O)N[C@@H](CCC(=O)O)C(N)=O)NC(=O)[C@H](CCCNC(=N)N)NC(=O)[C@H](Cc2c[nH]cn2)NC(=O)[C@H](CCC(=O)O)NC(=O)CN(C)C(=O)[C@H](Cc2c[nH]c3ccccc23)NC(=O)[C@H](CC(=O)O)NC(=O)[C@H](CCC(N)=O)NC(=O)[C@H](Cc2cn(C)c3ccccc23)NC1=O
# B13: Compound 69 (peptide)
# peptide: Ac-YCI[Trp(1-Me)]QDWGEHRCTESGA-NH2
# modifications: disulfide 2-12
# SMILES: CC[C@H](C)[C@@H]1NC(=O)[C@@H](NC(=O)[C@H](Cc2ccc(O)cc2)NC(C)=O)CSSC[C@@H](C(=O)N[C@H](C(=O)N[C@@H](CCC(=O)O)C(=O)N[C@@H](CO)C(=O)NCC(=O)N[C@@H](C)C(N)=O)[C@@H](C)O)NC(=O)[C@H](CCCNC(=N)N)NC(=O)[C@H](Cc2c[nH]cn2)NC(=O)[C@H](CCC(=O)O)NC(=O)CNC(=O)[C@H](Cc2c[nH]c3ccccc23)NC(=O)[C@H](CC(=O)O)NC(=O)[C@H](CCC(N)=O)NC(=O)[C@H](Cc2cn(C)c3ccccc23)NC1=O
# B14: Compound 70 (peptide)
# peptide: Ac-EGSAYCI[Trp(1-Me)]QEWGEHRC[Sar]E-NH2
# modifications: disulfide 6-16
# SMILES: CC[C@H](C)[C@@H]1NC(=O)[C@@H](NC(=O)[C@H](Cc2ccc(O)cc2)NC(=O)[C@H](C)NC(=O)[C@H](CO)NC(=O)CNC(=O)[C@H](CCC(=O)O)NC(C)=O)CSSC[C@@H](C(=O)N(C)CC(=O)N[C@@H](CCC(=O)O)C(N)=O)NC(=O)[C@H](CCCNC(=N)N)NC(=O)[C@H](Cc2c[nH]cn2)NC(=O)[C@H](CCC(=O)O)NC(=O)CNC(=O)[C@H](Cc2c[nH]c3ccccc23)NC(=O)[C@H](CCC(=O)O)NC(=O)[C@H](CCC(N)=O)NC(=O)[C@H](Cc2cn(C)c3ccccc23)NC1=O
# Molecular target: Human C3 (Complement tech cat #A113c) (human, UniProt P01024 23-1663)
# Assay: cell-based or functional assay
# Sequence of Human C3 (Complement tech cat #A113c) (P01024 23-1663 limits assumed): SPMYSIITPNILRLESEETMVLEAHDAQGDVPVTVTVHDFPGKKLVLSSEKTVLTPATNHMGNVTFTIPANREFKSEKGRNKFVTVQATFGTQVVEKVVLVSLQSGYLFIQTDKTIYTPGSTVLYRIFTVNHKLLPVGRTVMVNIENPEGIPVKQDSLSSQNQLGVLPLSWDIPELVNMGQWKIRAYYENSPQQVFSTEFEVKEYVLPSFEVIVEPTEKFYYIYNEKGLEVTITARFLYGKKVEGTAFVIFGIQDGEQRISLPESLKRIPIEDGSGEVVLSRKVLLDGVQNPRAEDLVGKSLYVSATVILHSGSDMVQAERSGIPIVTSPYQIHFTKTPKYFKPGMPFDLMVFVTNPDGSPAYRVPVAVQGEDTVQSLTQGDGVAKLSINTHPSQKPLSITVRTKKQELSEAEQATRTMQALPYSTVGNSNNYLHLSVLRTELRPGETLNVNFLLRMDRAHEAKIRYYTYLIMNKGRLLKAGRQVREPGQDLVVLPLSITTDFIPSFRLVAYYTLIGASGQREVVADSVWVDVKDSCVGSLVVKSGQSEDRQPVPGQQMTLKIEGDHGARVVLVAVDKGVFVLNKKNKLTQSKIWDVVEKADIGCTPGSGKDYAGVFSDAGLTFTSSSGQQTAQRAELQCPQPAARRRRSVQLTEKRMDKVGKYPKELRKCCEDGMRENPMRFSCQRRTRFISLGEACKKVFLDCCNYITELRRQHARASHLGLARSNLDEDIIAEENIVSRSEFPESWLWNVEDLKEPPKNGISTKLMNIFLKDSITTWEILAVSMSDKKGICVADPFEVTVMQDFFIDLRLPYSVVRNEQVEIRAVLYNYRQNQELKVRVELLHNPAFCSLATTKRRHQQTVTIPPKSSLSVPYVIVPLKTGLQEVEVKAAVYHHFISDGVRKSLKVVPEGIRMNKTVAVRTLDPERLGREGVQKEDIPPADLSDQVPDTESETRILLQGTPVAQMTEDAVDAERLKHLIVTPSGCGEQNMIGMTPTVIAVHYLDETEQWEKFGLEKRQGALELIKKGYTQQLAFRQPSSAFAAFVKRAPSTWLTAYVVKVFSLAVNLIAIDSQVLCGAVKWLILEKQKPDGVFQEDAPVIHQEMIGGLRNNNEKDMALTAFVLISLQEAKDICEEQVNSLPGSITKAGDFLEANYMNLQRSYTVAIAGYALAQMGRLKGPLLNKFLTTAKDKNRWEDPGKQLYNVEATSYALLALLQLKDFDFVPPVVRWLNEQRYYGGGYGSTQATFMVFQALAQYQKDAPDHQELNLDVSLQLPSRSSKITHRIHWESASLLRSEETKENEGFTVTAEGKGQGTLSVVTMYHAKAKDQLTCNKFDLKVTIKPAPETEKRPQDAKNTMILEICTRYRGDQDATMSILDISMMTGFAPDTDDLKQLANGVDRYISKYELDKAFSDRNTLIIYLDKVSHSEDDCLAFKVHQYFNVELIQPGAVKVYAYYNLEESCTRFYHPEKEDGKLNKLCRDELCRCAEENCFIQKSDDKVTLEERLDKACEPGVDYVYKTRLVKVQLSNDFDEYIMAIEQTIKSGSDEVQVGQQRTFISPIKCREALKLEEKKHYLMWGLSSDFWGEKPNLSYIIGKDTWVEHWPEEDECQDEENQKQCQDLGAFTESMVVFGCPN
row,Binder,inhibition of hemolysis IC50 [nM]
1,B1,< 100
2,B2,< 100
3,B3,< 100
4,B4,< 100
5,B5,< 100
6,B6,< 100
7,B7,< 100
8,B8,< 100
9,B9,< 100
10,B10,< 100
11,B11,< 100
12,B12,< 100
13,B13,< 100
14,B14,< 100
